# IntAct's records for PubMed 20588253
# B1: Mitogen-activated protein kinase kinase kinase 2 (Homo sapiens), Q9Y2U5 (parent)
# chain: MDDQQALNSIMQDLAVLHKASRPALSLQETRKAKSSSPKKQNDVRVKFEHRGEKRILQFPRPVKLEDLRSKAKIAFGQSMDLHYTNNELVIPLTTQDDLDKAVELLDRSIHMKSLKILLVINGSTQATNLEPLPSLEDLDNTVFGAERKKRLSIIGPTSRDRSSPPPGYIPDELHQVARNGSFTSINSEGEFIPESMDQMLDPLSLSSPENSGSGSCPSLDSPLDGESYPKSRMPRAQSYPDNHQEFSDYDNPIFEKFGKGGTYPRRYHVSYHHQEYNDGRKTFPRARRTQGTSLRSPVSFSPTDHSLSTSSGSSIFTPEYDDSRIRRRGSDIDNPTLTVMDISPPSRSPRAPTNWRLGKLLGQGAFGRVYLCYDVDTGRELAVKQVQFDPDSPETSKEVNALECEIQLLKNLLHERIVQYYGCLRDPQEKTLSIFMEYMPGGSIKDQLKAYGALTENVTRKYTRQILEGVHYLHSNMIVHRDIKGANILRDSTGNVKLGDFGASKRLQTICLSGTGMKSVTGTPYWMSPEVISGEGYGRKADIWSVACTVVEMLTEKPPWAEFEAMAAIFKIATQPTNPKLPPHVSDYTRDFLKRIFVEAKLRPSADELLRHMFVHYH
# Variants of: B1
# Settings: with chip_human STUB1, Q9UNE7
# chip_human STUB1, Q9UNE7, sequence (Q9UNE7 whole entry): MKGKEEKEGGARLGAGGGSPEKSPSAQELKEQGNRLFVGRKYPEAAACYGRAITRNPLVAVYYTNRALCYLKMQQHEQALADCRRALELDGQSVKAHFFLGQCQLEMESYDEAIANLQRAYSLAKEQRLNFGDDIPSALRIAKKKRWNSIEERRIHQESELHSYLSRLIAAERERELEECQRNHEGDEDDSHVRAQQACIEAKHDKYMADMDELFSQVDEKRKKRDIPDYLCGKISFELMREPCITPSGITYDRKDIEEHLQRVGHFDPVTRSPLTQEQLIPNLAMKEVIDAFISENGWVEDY
row,Variant,effect of a mutation on the interaction
1,K385M,disrupting interaction

# Variants of: B1
# Settings: with chip_human STUB1, Q9UNE7
# Remark: another data set of the same source
row,Variant,effect of a mutation on the interaction
1,K385M,increasing interaction

# Variants of: B1
# Settings: with ubc_human UBC
row,Variant,effect of a mutation on the interaction
1,K385M,disrupting interaction
